Results as given in article PMC2904749.
One block for each substance: values may come before it.

What was measured:
[1] = target: human βB2-crystallin Q70E (human); test: small angle X-ray scattering
[2] = target: human βB2-crystallin Q70E (human); test: dynamic light scattering
[3] = target: human βB2-crystallin Q162E (human); test: small angle X-ray scattering
[4] = target: human βB2-crystallin Q162E (human); test: dynamic light scattering
[5] = target: human βB2-crystallin doubly deamidated mutant Q70EQ162E (human); test: small angle X-ray scattering
[6] = target: human βB2-crystallin doubly deamidated mutant Q70EQ162E (human); test: dynamic light scattering

stoichiometry N [1]: 2
stoichiometry N [2]: 2
Substance: human βB2-crystallin Q70E (natural protein)

stoichiometry N [3]: 2
stoichiometry N [4]: 2
Substance: human βB2-crystallin Q162E (natural protein)

stoichiometry N [5]: 2
stoichiometry N [6]: 2
Substance: human βB2-crystallin doubly deamidated mutant Q70EQ162E (natural protein)
